Assay results: patent publication CN114478789A (ANHUI ANKE BIOLOGICAL ENG GROUP CO LTD, dated 2022)

T1: rhOX40-Avi-His (human, UniProt P43489 29-214, limits assumed)
T1 construct: also called OX40抗原; 人源OX40
T1 sequence (looked up): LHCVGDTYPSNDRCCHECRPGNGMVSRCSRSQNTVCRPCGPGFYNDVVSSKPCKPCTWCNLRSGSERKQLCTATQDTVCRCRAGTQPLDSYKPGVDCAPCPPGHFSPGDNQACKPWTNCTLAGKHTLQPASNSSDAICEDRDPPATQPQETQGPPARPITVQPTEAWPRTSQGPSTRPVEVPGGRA

T2: 鼠源OX40 (mouse, UniProt P47741 20-211, limits assumed)
T2 construct: also called 鼠源OX40抗原
T2 sequence (looked up): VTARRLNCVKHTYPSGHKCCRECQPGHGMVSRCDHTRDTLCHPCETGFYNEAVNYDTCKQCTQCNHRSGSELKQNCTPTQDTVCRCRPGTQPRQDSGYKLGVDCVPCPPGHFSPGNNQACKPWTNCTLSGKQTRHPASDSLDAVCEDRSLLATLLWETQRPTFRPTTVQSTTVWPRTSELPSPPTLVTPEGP

B1: L52-2D7H232 (bispecific antibody, human IgG1, kappa)
light: DIQMTQSPSTLSASVGDRVTITCQSSQNVYSNNRLSWYQQKPGKAPKLLIYWTSFLASGVPSRFSGSGSGTEFTLTISSLQPDDFATYYCAGGYSGNLYTFGQGTKLEIKRTVAAPSVFIFPPSDEQLKSGTASVVCLLNNFYPREAKVQWKVDNALQSGNSQESVTEQDSKDSTYSLSSTLTLSKADYEKHKVYACEVTHQGLSSPVTKSFNRGEC
heavy: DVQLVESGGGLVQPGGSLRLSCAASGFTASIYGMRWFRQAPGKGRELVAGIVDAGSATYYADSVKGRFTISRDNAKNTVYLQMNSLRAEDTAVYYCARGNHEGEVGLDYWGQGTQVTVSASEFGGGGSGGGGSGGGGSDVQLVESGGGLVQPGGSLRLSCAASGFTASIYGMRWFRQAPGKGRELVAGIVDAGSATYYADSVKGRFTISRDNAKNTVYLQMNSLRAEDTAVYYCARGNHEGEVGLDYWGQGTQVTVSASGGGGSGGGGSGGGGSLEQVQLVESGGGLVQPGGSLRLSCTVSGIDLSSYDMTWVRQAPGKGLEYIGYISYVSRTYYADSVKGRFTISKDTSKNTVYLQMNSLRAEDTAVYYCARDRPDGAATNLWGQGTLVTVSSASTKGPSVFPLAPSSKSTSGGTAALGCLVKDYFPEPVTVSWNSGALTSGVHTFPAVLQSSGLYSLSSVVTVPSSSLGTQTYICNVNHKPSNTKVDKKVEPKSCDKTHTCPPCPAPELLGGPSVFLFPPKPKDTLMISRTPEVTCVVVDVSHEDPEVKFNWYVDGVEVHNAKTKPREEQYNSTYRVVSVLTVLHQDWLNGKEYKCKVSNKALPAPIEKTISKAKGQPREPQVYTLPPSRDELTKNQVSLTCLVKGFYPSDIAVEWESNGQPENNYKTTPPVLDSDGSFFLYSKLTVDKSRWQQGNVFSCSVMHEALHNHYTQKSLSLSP
notes: Symmetric bispecific: two tandem anti-OX40 nanobodies D7 joined to the heavy chain of the anti-PD-L1 IgG1 L52H232; also called 抗PD-L1与OX40双特异性抗体; 优选抗体L52-2D7H232
B2: L52H232-D7 (bispecific antibody, human IgG1, kappa, N297A)
light: B1 light
heavy: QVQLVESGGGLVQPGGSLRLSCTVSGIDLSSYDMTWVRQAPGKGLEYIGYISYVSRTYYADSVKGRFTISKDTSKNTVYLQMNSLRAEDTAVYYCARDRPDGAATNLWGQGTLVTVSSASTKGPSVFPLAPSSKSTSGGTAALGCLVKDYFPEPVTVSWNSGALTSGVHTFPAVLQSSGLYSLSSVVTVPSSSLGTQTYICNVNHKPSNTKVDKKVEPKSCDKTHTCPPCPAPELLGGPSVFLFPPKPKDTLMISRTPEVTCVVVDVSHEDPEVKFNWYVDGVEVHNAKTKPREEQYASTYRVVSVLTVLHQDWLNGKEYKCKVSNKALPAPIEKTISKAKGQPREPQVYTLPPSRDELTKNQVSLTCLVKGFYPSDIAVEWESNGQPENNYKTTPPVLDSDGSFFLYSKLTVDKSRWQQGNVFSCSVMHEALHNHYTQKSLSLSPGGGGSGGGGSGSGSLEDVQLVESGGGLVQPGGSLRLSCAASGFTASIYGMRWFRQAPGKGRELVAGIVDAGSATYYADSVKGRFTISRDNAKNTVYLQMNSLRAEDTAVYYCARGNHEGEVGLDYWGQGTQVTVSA
notes: Symmetric bispecific: anti-OX40 nanobody D7 joined to the heavy chain of the anti-PD-L1 IgG1 L52H232; also called 抗PD-L1与OX40双特异性抗体
B3: L52H232-2D7 (bispecific antibody, human IgG1, kappa, N297A)
light: B1 light
heavy: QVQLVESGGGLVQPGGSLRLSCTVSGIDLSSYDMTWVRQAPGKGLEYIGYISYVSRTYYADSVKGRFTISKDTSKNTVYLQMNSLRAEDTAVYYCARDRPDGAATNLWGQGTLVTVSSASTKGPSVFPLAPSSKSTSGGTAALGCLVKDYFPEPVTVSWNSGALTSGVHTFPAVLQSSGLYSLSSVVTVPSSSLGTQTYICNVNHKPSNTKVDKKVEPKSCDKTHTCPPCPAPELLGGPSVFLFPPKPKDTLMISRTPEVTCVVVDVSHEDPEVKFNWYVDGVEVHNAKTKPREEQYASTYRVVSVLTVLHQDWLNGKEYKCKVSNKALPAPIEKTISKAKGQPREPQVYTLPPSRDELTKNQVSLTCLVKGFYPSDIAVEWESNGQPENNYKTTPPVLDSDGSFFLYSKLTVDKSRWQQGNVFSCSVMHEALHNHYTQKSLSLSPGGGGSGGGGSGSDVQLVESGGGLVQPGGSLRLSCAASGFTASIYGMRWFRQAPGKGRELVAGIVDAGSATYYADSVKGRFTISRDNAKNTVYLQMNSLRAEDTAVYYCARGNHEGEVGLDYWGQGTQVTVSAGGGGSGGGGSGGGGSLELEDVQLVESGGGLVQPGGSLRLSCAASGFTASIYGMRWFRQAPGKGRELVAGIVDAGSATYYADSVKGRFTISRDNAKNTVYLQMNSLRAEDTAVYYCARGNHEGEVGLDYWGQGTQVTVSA
notes: to be rechecked; also called 抗PD-L1与OX40双特异性抗体
B4: L52-D7H232 (bispecific antibody, human IgG1, kappa, N297A)
light: B1 light
heavy: DVQLVESGGGLVQPGGSLRLSCAASGFTASIYGMRWFRQAPGKGRELVAGIVDAGSATYYADSVKGRFTISRDNAKNTVYLQMNSLRAEDTAVYYCARGNHEGEVGLDYWGQGTQVTVSASEFGGGGSGGGGSGGGGSLEQVQLVESGGGLVQPGGSLRLSCTVSGIDLSSYDMTWVRQAPGKGLEYIGYISYVSRTYYADSVKGRFTISKDTSKNTVYLQMNSLRAEDTAVYYCARDRPDGAATNLWGQGTLVTVSSASTKGPSVFPLAPSSKSTSGGTAALGCLVKDYFPEPVTVSWNSGALTSGVHTFPAVLQSSGLYSLSSVVTVPSSSLGTQTYICNVNHKPSNTKVDKKVEPKSCDKTHTCPPCPAPEDEGGPSVFLFPPKPKDTLMISRTPEVTCVVVDVSHEDPEVKFNWYVDGVEVHNAKTKPREEQYASTYRVVSVLTVLHQDWLNGKEYKCKVSNKALPAPIEKTISKAKGQPREPQVYTLPPCRDELTKNQVSLWCLVKGFYPSDIAVEWESNGQPENNYKTTPPVLDSDGSFFLYSKLTVDKSRWQQGNVFSCSVMHEALHNHYTQKSLSLSP
notes: Symmetric bispecific: anti-OX40 nanobody D7 joined to the heavy chain of the anti-PD-L1 IgG1 L52H232; also called 抗PD-L1与OX40双特异性抗体; 优选抗体L52-D7H232

target: T1, rhOX40-Avi-His; test: ELISA, human OX40 coated

Row | Binder | binding result
1 | B1 | binds
2 | B2 | binds
3 | B3 | binds

target: T2, 鼠源OX40; test: ELISA, mouse OX40 coated

Row | Binder | binding result
4 | B1 | no binding
5 | B2 | no binding
6 | B3 | no binding
7 | B4 | no binding
